Assay results as given in patent US20060257938A1, “Method of screening for drugs that block ligand binding to a lipid binding protein” (priority 2005, published 2006).
Changes are numbered by the printed parent chain.

B1: 78F 102I 72A (protein, listed as Rattus norvegicus)
chain: AFDGTWKVDRNENYEKFMEKMGINVVKRKLGAHDNLKLTITQEGNKFTVKESSNFRNIDVVFELGVDFAYSAADGTEFTGTWTMEGNKLVGKFKRVDNGKEIIAVREISGNELIQTYTYEGVEAKRIFKKE
modifications: PEPTIDE (1)...(131) wild-type rat intestinal fatty acid binding protein
B2: 72G 74F (protein, listed as Rattus norvegicus)
chain: B1 chain with A72G, D74F, F78L, I102L
modifications: PEPTIDE (1)...(131) wild-type rat intestinal fatty acid binding protein
B3: 38V 62V 117A 72A (protein, listed as Rattus norvegicus)
chain: B1 chain with L38V, F62V, F78L, I102L, Y117A
modifications: PEPTIDE (1)...(131) wild-type rat intestinal fatty acid binding protein
B4: 14I 18L 31W 73V 117G 72A (protein, listed as Rattus norvegicus)
chain: B1 chain with Y14I, M18L, G31W, A73V, F78L, I102L, Y117G
modifications: PEPTIDE (1)...(131) wild-type rat intestinal fatty acid binding protein
B5: 38A 106V 117A 72A (protein, listed as Rattus norvegicus)
chain: B1 chain with L38A, F78L, I102L, R106V, Y117A
modifications: PEPTIDE (1)...(131) wild-type rat intestinal fatty acid binding protein
B6: 72T 73Q 74S (protein, listed as Rattus norvegicus)
chain: B1 chain with A72T, A73Q, D74S, F78L, I102L
modifications: PEPTIDE (1)...(131) wild-type rat intestinal fatty acid binding protein
B7: 38Q 62I 106I 117A 72A (protein, listed as Rattus norvegicus)
chain: B1 chain with L38Q, F62I, F78L, I102L, R106I, Y117A
modifications: PEPTIDE (1)...(131) wild-type rat intestinal fatty acid binding protein
B8: 14L 18I 31L 73F 117A 72A (protein, listed as Rattus norvegicus)
chain: B1 chain with Y14L, M18I, G31L, A73F, F78L, I102L, Y117A
modifications: PEPTIDE (1)...(131) wild-type rat intestinal fatty acid binding protein
B9: 14W 18L 117S 72A (protein, listed as Rattus norvegicus)
chain: B1 chain with Y14W, M18L, F78L, I102L, Y117S
modifications: PEPTIDE (1)...(131) wild-type rat intestinal fatty acid binding protein
B10: 18I 31L 73L 72A (protein, listed as Rattus norvegicus)
chain: B1 chain with M18I, G31L, A73L, F78L, I102L
modifications: PEPTIDE (1)...(131) wild-type rat intestinal fatty acid binding protein
B11: 14L 18T 31E 73G 117G 72A (protein, listed as Rattus norvegicus)
chain: B1 chain with Y14L, M18T, G31E, A73G, F78L, I102L, Y117G
modifications: PEPTIDE (1)...(131) wild-type rat intestinal fatty acid binding protein
B12: 14I 18V 31W 73I 117V 72A (protein, listed as Rattus norvegicus)
chain: B1 chain with Y14I, M18V, G31W, A73I, F78L, I102L, Y117V
modifications: PEPTIDE (1)...(131) wild-type rat intestinal fatty acid binding protein
B13: 14L 18L 73L 117A 72A (protein, listed as Rattus norvegicus)
chain: B1 chain with Y14L, M18L, A73L, F78L, I102L, Y117A
modifications: PEPTIDE (1)...(131) wild-type rat intestinal fatty acid binding protein
B14: 62N 106F 117A 72A (protein, listed as Rattus norvegicus)
chain: B1 chain with F62N, F78L, I102L, R106F, Y117A
modifications: PEPTIDE (1)...(131) wild-type rat intestinal fatty acid binding protein
B15: 14L 18L 31W 73W 117L 72A (protein, listed as Rattus norvegicus)
chain: B1 chain with Y14L, M18L, G31W, A73W, F78L, I102L, Y117L
modifications: PEPTIDE (1)...(131) wild-type rat intestinal fatty acid binding protein
B16: 73N 72A 74F (protein, listed as Rattus norvegicus)
chain: B1 chain with A73N, D74F, F78L, I102L
modifications: PEPTIDE (1)...(131) wild-type rat intestinal fatty acid binding protein
B17: 18G 31W 73V 72A (protein, listed as Rattus norvegicus)
chain: B1 chain with M18G, G31W, A73V, F78L, I102L
modifications: PEPTIDE (1)...(131) wild-type rat intestinal fatty acid binding protein
B18: 72H 73Y 74G (protein, listed as Rattus norvegicus)
chain: B1 chain with A72H, A73Y, D74G, F78L, I102L
modifications: PEPTIDE (1)...(131) wild-type rat intestinal fatty acid binding protein
B19: 14L 18L 31L 73G 117V 72A (protein, listed as Rattus norvegicus)
chain: B1 chain with Y14L, M18L, G31L, A73G, F78L, I102L, Y117V
modifications: PEPTIDE (1)...(131) wild-type rat intestinal fatty acid binding protein

Test: Probe fluorescence ratio response to palmitic acid relative to ADIFAB2
Format: binding
Settings: response relative to ADIFAB2
In short: (§1)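 Fluorescently labeled rat intestinal FABP variants were read at two emission wavelengths, near the unbound maximum (about 420 to 480 nm) and the FFA-bound maximum (about 495 to 580 nm). R = Fλ1/Fλ2 after subtracting probe-free intensity; ΔR = R+agent − R0, normalized to ADIFAB2 (rI-FABP-L72A).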

Row | Molecule | DR/DR PA
1 | B1 | 1.434
2 | B2 | 2.304
3 | B3 | 0.478
4 | B4 | 1.236
5 | B5 | 0.033
6 | B6 | 2.646
7 | B7 | 0.550
8 | B8 | 0.121
9 | B9 | 0.377
10 | B10 | 1.075
11 | B11 | 0.712
12 | B12 | 0.652
13 | B13 | 0.071
14 | B14 | 0.430
15 | B15 | 0.970
16 | B16 | 1.468
17 | B17 | 0.463
18 | B18 | 0.486
19 | B19 | 0.377

Test: Probe fluorescence ratio response to oleic acid relative to ADIFAB2
Format: binding
Settings: response relative to ADIFAB2
In short: as §1

Row | Molecule | DR/DR OA
20 | B1 | 2.506
21 | B2 | 1.490
22 | B3 | 1.668
23 | B4 | 1.756
24 | B5 | 0.368
25 | B6 | 2.676
26 | B7 | 1.167
27 | B8 | 0.300
28 | B9 | 0.904
29 | B10 | 0.549
30 | B11 | 1.096
31 | B12 | 0.887
32 | B13 | 0.355
33 | B14 | 0.864
34 | B15 | 1.085
35 | B16 | 0.775
36 | B17 | 0.942
37 | B18 | 0.140
38 | B19 | 0.031

Test: Probe fluorescence ratio response to stearic acid relative to ADIFAB2
Format: binding
Settings: response relative to ADIFAB2
In short: as §1

Row | Molecule | DR/DR SA
39 | B1 | 1.877
40 | B2 | 0.669
41 | B3 | 0.495
42 | B4 | 0.606
43 | B5 | 0.065
44 | B6 | 1.792
45 | B7 | 0.663
46 | B8 | 0.077
47 | B9 | 0.297
48 | B10 | 0.390
49 | B11 | 0.413
50 | B12 | 0.283
51 | B13 | 0.031
52 | B14 | 0.490
53 | B15 | 0.294
54 | B16 | 0.271
55 | B17 | 0.489
56 | B18 | 0.052
57 | B19 | 0.170

Test: Probe fluorescence ratio response to arachidonic acid relative to ADIFAB2
Format: binding
Settings: arachidonic acid; response relative to ADIFAB2
In short: as §1

Row | Molecule | DR/DR AA
58 | B1 | 2.093
59 | B2 | 1.669
60 | B3 | 0.984
61 | B4 | 2.037
62 | B5 | 1.492
63 | B6 | 2.166
64 | B7 | 1.656
65 | B8 | 1.297
66 | B9 | 0.976
67 | B10 | 0.626
68 | B11 | 1.236
69 | B12 | 1.553
70 | B13 | 0.905
71 | B14 | 1.265
72 | B15 | 1.772
73 | B16 | 0.870
74 | B17 | 0.774
75 | B18 | 0.600
76 | B19 | 1.180

Test: Probe fluorescence ratio response to palmitoleic acid relative to ADIFAB2
Format: binding
Settings: response relative to ADIFAB2
In short: as §1

Row | Molecule | DR/DR POA
77 | B1 | 2.022
78 | B2 | 2.996
79 | B3 | 0.668
80 | B4 | 1.770
81 | B5 | 0.121
82 | B6 | 3.110
83 | B7 | 0.473
84 | B8 | 0.235
85 | B9 | 0.811
86 | B10 | 0.781
87 | B11 | 1.072
88 | B12 | 1.411
89 | B13 | 0.410
90 | B14 | 0.341
91 | B15 | 2.059
92 | B16 | 2.256
93 | B17 | 0.770
94 | B18 | 0.986
95 | B19 | 0.180

Test: Probe fluorescence ratio response to linolenic acid relative to ADIFAB2
Format: binding
Settings: response relative to ADIFAB2
In short: as §1

Row | Molecule | DR/DR LNA
96 | B1 | 2.322
97 | B2 | 1.970
98 | B3 | 1.153
99 | B4 | 1.960
100 | B5 | 0.541
101 | B6 | 2.419
102 | B7 | 0.930
103 | B8 | 0.639
104 | B9 | 0.835
105 | B10 | 0.857
106 | B11 | 1.133
107 | B12 | 1.495
108 | B13 | 0.641
109 | B14 | 0.756
110 | B15 | 1.640
111 | B16 | 1.299
112 | B17 | 0.705
113 | B18 | 0.591
114 | B19 | 1.139

Test: Probe fluorescence ratio response to linoleic acid relative to ADIFAB2
Format: binding
Settings: response relative to ADIFAB2
In short: as §1

Row | Molecule | DR/DR LA
115 | B1 | 2.493
116 | B2 | 2.116
117 | B3 | 1.002
118 | B4 | 2.047
119 | B5 | 0.229
120 | B6 | 2.713
121 | B7 | 1.288
122 | B8 | 0.707
123 | B9 | 1.063
124 | B10 | 0.682
125 | B11 | 1.107
126 | B12 | 1.668
127 | B13 | 0.657
128 | B14 | 0.985
129 | B15 | 1.782
130 | B16 | 0.976
131 | B17 | 0.855
132 | B18 | 0.472
133 | B19 | 1.170
